Values quoted from earlier work in publication PMC4920389.

Target: Glu23 (UniProt position 23, FAVDEENKIGQ)
Assay: stability
Details: native (folded) state

MNEI (single-chain monellin) (Dioscoreophyllum cumminsii)
pKa: approximately 7.5
